The assay concerns the target T1, Full-length human CTGF (human, UniProt P29279 27-349).
T1 construct: Corresponds to NCBI NP_001892.1 with the signal peptide omitted; purchased from R&D Systems; also called hCTGF full length; full length CTGF
T1 sequence: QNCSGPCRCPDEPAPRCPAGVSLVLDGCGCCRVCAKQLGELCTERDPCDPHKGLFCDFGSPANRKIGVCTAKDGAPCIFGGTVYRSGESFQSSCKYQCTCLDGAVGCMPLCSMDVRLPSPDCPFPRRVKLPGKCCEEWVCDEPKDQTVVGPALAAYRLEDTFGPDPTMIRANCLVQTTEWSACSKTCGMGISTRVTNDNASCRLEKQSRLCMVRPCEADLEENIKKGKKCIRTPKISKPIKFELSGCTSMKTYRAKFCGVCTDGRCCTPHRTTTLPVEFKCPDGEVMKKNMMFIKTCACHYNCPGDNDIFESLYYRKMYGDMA
The experiment in a line: SPR, full length CTGF. A general note: SPR reads the build-up and loss of mass on a sensor chip optically.

Numbering of substitutions follows the chain as printed.

B1: A46 (antibody, human IgG1, kappa, L234A L235A, V domains shown)
VH: EVQLVESGGGLVQPGGSLRLSCAASGFTFSDYYMAWVRQAPGKGLEWVANINYEGSRTDLLDSLKSRFTISRDNAKNSVYLQMNSLRAEDTAVYYCARDTSRGSYFDVWGAGTTVTVSS
VL: VVMTQTPLSLSVSLGDQASISCKSSQSIVHYNENTYLEWYLQKPGQSPQLLIYKVSSRASGVPDRFSGSGSGTDFTLKISRVEAEDLGVYYCFQGSHFPLTFGQGTKLEIKR
In general, Kd refers to the equilibrium constant for the complex coming apart. The low end stands for higher affinity, the high end for lower affinity. Turning to B1, the Kd turned out to be 0.2 nM.

B2: A63 (antibody, human IgG1, kappa, L234A L235A, V domains shown)
VH: B1 VH with E54D, D62E
VL: B1 VL with S11P, K23R, E33A, S57N, A59F
With B2, the Kd turned out to be 0.34 nM. This Kd lies about 1.7-fold higher than the previous one.

B3: A55 (antibody, human IgG1, kappa, L234A L235A, V domains shown)
VH: B1 VH with E54D, D62E
VL: B1 VL with S11P, K23R, S57N, A59F
Take B3: the Kd was determined as 0.35 nM.

B4: A53 (antibody, human IgG1, kappa, L234A L235A)
light: VVMTQTPLSLPVSLGDQASISCRSSQSIVHYNENTYLEWYLQKPGQSPQLLIYKVSNRFSGVPDRFSGSGSGTDFTLKISRVEAEDLGVYYCFQGSHFPLTFGQGTKLEIKRTVAAPSVFIFPPSDEQLKSGTASVVCLLNNFYPREAKVQWKVDNALQSGNSQESVTEQDSKDSTYSLSSTLTLSKADYEKHKVYACEVTHQGLSSPVTKSFNRGEC
heavy: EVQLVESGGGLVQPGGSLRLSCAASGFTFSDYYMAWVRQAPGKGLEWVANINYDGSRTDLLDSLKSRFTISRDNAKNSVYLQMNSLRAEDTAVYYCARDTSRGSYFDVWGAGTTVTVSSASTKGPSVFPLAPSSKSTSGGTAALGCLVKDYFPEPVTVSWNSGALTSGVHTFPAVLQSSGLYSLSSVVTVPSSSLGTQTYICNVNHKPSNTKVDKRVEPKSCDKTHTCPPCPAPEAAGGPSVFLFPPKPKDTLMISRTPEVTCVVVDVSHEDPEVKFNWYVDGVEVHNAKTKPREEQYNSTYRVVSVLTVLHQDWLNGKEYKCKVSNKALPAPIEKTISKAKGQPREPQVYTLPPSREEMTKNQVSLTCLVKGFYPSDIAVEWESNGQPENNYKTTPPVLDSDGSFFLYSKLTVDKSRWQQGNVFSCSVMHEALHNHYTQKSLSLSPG
On to B4, for which the Kd worked out at 0.36 nM.

B5: A50 (antibody, human IgG1, kappa, L234A L235A, V domains shown)
VH: B1 VH with E54Y, D62E
VL: B1 VL with S11P, K23R, S57N, A59F
Consider B5, for which the Kd came to 0.26 nM.

B6: A68 (antibody, human IgG1, kappa, L234A L235A, V domains shown)
VH: B1 VH with E54Y, D62A
VL: B1 VL with S11P, K23R, E33T, S57N, A59F
With B6, the Kd was 0.15 nM.

B7: A49 (antibody, human IgG1, kappa, L234A L235A, V domains shown)
VH: B1 VH with D62E
VL: B1 VL with S11P, K23R, S57N, A59F
In the case of B7, the Kd turned out to be 0.3 nM.

B8: A60 (antibody, human IgG1, kappa, L234A L235A, V domains shown)
VH: B1 VH with E54Y, D62A
VL: B1 VL with S11P, K23R, E33A, S57N, A59F
The molecule B8 yielded a Kd of 0.3 nM. This lies in the sub-nanomolar range.

B9: A72 (antibody, human IgG1, kappa, L234A L235A)
light: B4 light with E33T
heavy: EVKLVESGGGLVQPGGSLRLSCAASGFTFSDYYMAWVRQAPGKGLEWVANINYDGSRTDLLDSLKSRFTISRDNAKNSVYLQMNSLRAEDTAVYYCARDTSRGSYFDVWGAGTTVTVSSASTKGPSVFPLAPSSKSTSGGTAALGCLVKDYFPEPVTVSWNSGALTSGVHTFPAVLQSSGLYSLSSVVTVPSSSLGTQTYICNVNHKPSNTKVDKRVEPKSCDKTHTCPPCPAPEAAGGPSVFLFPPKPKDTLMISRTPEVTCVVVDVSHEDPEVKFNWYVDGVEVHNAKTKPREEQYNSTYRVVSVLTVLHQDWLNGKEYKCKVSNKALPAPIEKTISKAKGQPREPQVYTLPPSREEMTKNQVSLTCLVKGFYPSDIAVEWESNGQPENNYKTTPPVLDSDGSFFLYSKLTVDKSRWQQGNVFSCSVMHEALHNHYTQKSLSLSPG
Consider B9, for which the Kd is 0.27 nM. The Kd values of the last two molecules are within 1.5-fold of each other.

B10: A64 (antibody, human IgG1, kappa, L234A L235A)
light: B4 light with E33A
heavy: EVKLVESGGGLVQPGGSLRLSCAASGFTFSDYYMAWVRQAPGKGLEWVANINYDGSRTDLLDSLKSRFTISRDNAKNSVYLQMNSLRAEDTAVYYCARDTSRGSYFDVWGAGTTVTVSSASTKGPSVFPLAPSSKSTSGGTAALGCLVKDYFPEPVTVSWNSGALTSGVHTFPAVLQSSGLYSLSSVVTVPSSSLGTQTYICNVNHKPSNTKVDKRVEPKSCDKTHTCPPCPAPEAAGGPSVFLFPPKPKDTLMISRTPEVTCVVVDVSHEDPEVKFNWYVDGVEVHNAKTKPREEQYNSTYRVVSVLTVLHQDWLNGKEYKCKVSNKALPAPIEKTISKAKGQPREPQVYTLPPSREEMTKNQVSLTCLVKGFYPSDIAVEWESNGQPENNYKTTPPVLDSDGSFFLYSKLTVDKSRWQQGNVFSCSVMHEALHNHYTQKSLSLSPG
Molecule B10 showed a Kd of 0.32 nM.

B11: A47 (antibody, human IgG1, kappa, L234A L235A, V domains shown)
VH: B1 VH with E54D, D62E
VL: B1 VL
As to B11, the binding result is on record as “no binding”.

B12: A70 (antibody, human IgG1, kappa, L234A L235A, V domains shown)
VH: B1 VH
VL: B1 VL with S11P, K23R, E33T, S57N, A59F
Regarding B12, binding was characterised by a dissociation constant (Kd) of 0.27 nM.

B13: A65 (antibody, human IgG1, kappa, L234A L235A, V domains shown)
VH: B1 VH with D62E
VL: B1 VL with S11P, K23R, E33T, S57N, A59F
The molecule B13 showed a Kd of 0.27 nM.

B14: A69 (antibody, human IgG1, kappa, L234A L235A)
light: B4 light with E33T
heavy: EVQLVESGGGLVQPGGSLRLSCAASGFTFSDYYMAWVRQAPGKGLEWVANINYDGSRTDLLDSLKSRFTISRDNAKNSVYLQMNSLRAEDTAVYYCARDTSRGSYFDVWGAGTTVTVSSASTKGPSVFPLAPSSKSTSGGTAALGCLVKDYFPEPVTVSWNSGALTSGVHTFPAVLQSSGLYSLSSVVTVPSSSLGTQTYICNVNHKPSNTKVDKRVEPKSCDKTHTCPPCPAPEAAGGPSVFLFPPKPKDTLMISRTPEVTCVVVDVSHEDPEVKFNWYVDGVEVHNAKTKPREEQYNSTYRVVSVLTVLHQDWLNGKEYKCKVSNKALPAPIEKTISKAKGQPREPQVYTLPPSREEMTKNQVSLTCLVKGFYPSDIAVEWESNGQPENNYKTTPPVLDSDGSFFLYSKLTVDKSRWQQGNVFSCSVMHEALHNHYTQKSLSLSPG
In turn, B14 displayed a Kd of 0.28 nM. The Kd values of the last two molecules are within 1.5-fold of each other.

B15: A67 (antibody, human IgG1, kappa, L234A L235A, V domains shown)
VH: B1 VH with D62A
VL: B1 VL with S11P, K23R, E33T, S57N, A59F
The molecule B15 came in with a Kd of 0.24 nM.

B16: A62 (antibody, human IgG1, kappa, L234A L235A, V domains shown)
VH: B1 VH
VL: B1 VL with S11P, K23R, E33A, S57N, A59F
B16: the Kd is 0.35 nM.

B17: A61 (antibody, human IgG1, kappa, L234A L235A)
light: B4 light with E33A
heavy: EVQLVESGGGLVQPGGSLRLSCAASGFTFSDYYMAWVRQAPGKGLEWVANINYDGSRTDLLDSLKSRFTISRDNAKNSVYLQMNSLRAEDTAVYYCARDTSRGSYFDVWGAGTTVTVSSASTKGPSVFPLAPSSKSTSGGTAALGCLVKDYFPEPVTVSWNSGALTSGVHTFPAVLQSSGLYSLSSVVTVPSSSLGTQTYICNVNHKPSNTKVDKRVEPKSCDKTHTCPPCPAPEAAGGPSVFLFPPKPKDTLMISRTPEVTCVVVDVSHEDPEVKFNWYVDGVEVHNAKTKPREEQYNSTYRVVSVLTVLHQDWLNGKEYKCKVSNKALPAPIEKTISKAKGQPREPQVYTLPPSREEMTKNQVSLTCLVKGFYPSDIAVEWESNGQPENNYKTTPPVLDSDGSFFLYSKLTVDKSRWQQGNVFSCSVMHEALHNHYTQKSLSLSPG
B17 yielded a Kd of 0.35 nM.

B18: A51 (antibody, human IgG1, kappa, L234A L235A, V domains shown)
VH: B1 VH with D62A
VL: B1 VL with S11P, K23R, S57N, A59F
With B18, the Kd was determined as 0.25 nM.

B19: A59 (antibody, human IgG1, kappa, L234A L235A, V domains shown)
VH: B1 VH with D62A
VL: B1 VL with S11P, K23R, E33A, S57N, A59F
With B19, the equilibrium dissociation constant (Kd) is 0.27 nM.

B20: A52 (antibody, human IgG1, kappa, L234A L235A, V domains shown)
VH: B1 VH with E54Y, D62A
VL: B1 VL with S11P, K23R, S57N, A59F
With B20, binding was characterised by a dissociation constant (Kd) of 0.27 nM. This lies in the sub-nanomolar range.

B21: A66 (antibody, human IgG1, kappa, L234A L235A, V domains shown)
VH: B1 VH with E54Y, D62E
VL: B1 VL with S11P, K23R, E33T, S57N, A59F
In turn, B21 had a Kd of 0.25 nM.

B22: A57 (antibody, human IgG1, kappa, L234A L235A, V domains shown)
VH: B1 VH with D62E
VL: B1 VL with S11P, K23R, E33A, S57N, A59F
B22 yielded a Kd of 0.35 nM.

B23: A48 (antibody, human IgG1, kappa, L234A L235A)
light: B4 light with P11S, R23K, N57S, F59A
heavy: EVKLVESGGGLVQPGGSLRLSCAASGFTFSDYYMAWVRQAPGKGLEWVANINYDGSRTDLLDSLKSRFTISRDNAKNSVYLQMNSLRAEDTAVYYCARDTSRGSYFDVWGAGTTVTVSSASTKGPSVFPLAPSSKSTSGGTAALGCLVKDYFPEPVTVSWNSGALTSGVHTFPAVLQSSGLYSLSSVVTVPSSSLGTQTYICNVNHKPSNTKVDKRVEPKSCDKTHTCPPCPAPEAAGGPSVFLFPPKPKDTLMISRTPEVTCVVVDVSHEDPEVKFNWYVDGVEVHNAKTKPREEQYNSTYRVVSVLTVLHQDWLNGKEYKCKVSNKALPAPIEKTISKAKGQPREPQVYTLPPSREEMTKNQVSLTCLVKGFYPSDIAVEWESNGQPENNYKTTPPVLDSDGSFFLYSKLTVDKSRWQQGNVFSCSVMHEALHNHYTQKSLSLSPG
Consider B23, for which the affinity, expressed as Kd, was 0.23 nM.

B24: A58 (antibody, human IgG1, kappa, L234A L235A, V domains shown)
VH: B1 VH with E54Y, D62E
VL: B1 VL with S11P, K23R, E33A, S57N, A59F
Take B24: binding was put at a Kd of 0.3 nM. This Kd and that of the molecule before are within 1.5-fold of each other.

B25: A71 (antibody, human IgG1, kappa, L234A L235A, V domains shown)
VH: B1 VH with E54D, D62E
VL: B1 VL with S11P, K23R, E33T, S57N, A59F
The molecule B25 displayed a Kd of 0.28 nM. The Kd values of the last two molecules are within 1.5-fold of each other.

B26: A54 (antibody, human IgG1, kappa, L234A L235A, V domains shown)
VH: B1 VH
VL: B1 VL with S11P, K23R, S57N, A59F
For the molecule B26, the equilibrium dissociation constant (Kd) was 0.31 nM. The Kd values of the last two molecules are within 1.5-fold of each other.

B27: A56 (antibody, human IgG1, kappa, L234A L235A)
light: B4 light
heavy: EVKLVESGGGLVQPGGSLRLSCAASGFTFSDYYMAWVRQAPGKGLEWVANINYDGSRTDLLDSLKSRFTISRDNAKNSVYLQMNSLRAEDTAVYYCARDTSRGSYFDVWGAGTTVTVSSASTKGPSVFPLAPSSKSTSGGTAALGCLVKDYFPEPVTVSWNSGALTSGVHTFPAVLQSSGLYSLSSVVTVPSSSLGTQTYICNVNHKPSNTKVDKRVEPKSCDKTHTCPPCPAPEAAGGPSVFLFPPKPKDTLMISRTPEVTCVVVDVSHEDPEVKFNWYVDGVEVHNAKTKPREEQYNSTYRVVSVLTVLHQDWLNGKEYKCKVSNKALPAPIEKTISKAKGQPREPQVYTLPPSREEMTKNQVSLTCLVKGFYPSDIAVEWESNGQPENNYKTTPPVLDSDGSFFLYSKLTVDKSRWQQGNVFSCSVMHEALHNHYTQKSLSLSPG
Molecule B27 showed a dissociation constant Kd of 0.31 nM.

The values above are taken from patent US20250277020A1 (Boehringer Ingelheim, published 2025).
